Reference: EP4725964A1 (Jiangsu Mabwell Health Pharmaceutical R&D Co., Ltd., dated 2026)
Numbering of substitutions follows the chain as printed.

B1: Antibody MM11 (antibody, mouse IgG1, kappa, V domains shown)
VH: DVQLQESGPGLVKPSQSLSLTCSVTGYSITSNFYWNWIRQFPGNRLEWMGYISYDGSNNYNPSLKNRISISRDTSKNQFFLKLNSVTTEDTATYYCVRADYWGQGTLVTVSA
VL: DTVMTQTPLSLPVSLGDQASISCRSSQSLESSDGHAYLNWYLQKPGQSPQLLIYRVSNRFSGVLHRFSGSGSGTDFTLKISRVEAEDLGVYFCLQFTHVPFTFGSGTKLEIKR
notes: Mouse monoclonal antibody from a hybridoma; heavy chain constant region is mouse IgG1; also called Nectin-4 mouse monoclonal antibody MM11; mouse antibody MM11
B2: Antibody R012 (antibody, V domains shown)
VH: SKSVEESGGRLVTPGTPLTLTCTVSGFSLSTYAMSWVRQAPGKGLEYIGIISGRGTTYYASWLKGRFTISKTSTTVDLKITSPTTEDTATYFCARDAGISDVYTGYFNLWGQGTLVTVSS
VL: QPVLAQLPSASAALGASAKLTCTLSSAHRTYTIAWYQQQQGEAPRYLMMLKSDGSYTKGTGVPDRFSGSSSGADRYLIISSVQAADEADYYCGADDSGGYVFGGGTQLTVTG
notes: Rabbit monoclonal antibody from a phage library; heavy chain constant region is rabbit IgG; also called Nectin-4 rabbit monoclonal antibody R012; rabbit antibody R012
B3: Antibody R036 (antibody, V domains shown)
VH: SQSVEESGGRLVTPGTPLTLTCTVSGFSLSSYAMSWVRQAPGKGLEYIGIIGGRGTTYYAIWAKGRFTISKTSTTVDLKITSPTTEDTATYFCARDAGTTYVGTTYVATGYFNLWGQGTLVTVSS
VL: B2 VL with A5T, L7P, R29K, M49I, K58R, A85D
notes: Rabbit monoclonal antibody from a phage library; heavy chain constant region is rabbit IgG; also called Nectin-4 rabbit monoclonal antibody R036; rabbit antibody R036

Assays:
[1] = biological target: recombinant human Nectin-4 protein (human) (UniProt Q96NY8); test: ELISA, antigen coated at 5 ug/ml, antibody 10 ng/ml
[2] = biological target: recombinant human Nectin-4 protein (human) (UniProt Q96NY8); test: ELISA, antigen coated at 5 ug/ml, antibody 100 ng/ml
[3] = biological target: recombinant human Nectin-4 protein (human) (UniProt Q96NY8); test: ELISA, antigen coated at 5 ug/ml, antibody 1000 ng/ml
[4] = biological target: recombinant human Nectin-4 protein (human) (UniProt Q96NY8); test: ELISA, antigen coated at 5 ug/ml, antibody 10000 ng/ml
[5] = biological target: T1, human Nectin-4 expressed by PC-3-Nectin-4 cells (human, UniProt Q96NY8 32-510); test: flow cytometry on PC-3-Nectin-4 cells, antibody 5 ug/ml
T1 construct: Full-length human Nectin-4 gene (NCBI Gene ID 81607, 1533 bp) knocked into PC-3 cells; On intact cells in flow cytometry; in denatured cell lysate in Western blotting; also called Nectin-4-expressing cells; Nectin-4-positive cells
T1 sequence: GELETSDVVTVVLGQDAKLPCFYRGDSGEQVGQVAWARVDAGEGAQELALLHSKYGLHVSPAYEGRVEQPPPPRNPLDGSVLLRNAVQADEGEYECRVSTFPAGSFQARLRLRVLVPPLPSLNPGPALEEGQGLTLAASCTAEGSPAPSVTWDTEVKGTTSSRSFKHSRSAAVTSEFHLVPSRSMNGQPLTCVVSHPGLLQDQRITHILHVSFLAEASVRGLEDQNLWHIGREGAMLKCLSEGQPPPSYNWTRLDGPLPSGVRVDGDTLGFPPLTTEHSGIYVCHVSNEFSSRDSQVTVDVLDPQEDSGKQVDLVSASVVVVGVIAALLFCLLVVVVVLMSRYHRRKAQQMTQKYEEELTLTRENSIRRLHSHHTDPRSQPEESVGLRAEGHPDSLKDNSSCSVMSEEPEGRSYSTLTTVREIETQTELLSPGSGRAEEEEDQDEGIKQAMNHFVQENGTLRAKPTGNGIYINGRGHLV

[6] = biological target: recombinant human Nectin-4 protein (human) (UniProt Q96NY8); test: ELISA, antigen coated at 5 ug/ml, antibody 0 ng/ml (blank control)
[7] = biological target: T2, Nectin-4 in human tissue sections (human, UniProt Q96NY8 32-510); test: IHC, normal human salivary gland, 3 samples, antibody 1 ug/ml
T2 construct: Endogenous Nectin-4 in formalin-fixed, paraffin-embedded human tissue sections (cell membrane and/or cytoplasm), as stained by immunohistochemistry; also called target protein Nectin-4; Nectin-4 in normal human tissues and tumor tissues
T2 sequence: T1 sequence

[8] = biological target: T2, Nectin-4 in human tissue sections; test: IHC, normal human pancreas, antibody 1 ug/ml
[9] = biological target: T2, Nectin-4 in human tissue sections; test: IHC, normal human skin, antibody 1 ug/ml

Binder | OD detection value (OD450 nm-650 nm) [1] | OD detection value (OD450 nm-650 nm) [2] | OD detection value (OD450 nm-650 nm) [3] | OD detection value (OD450 nm-650 nm) [4] | binding result [5] | OD detection value (OD450 nm-650 nm) [6] | binding result [7] | binding result [8] | binding result [9]
B1 | 0.58 | 1.64 | 2.05 | 1.97 | binds | 0.008 | binds | – | –
B2 | 0.748 | 1.44 | 1.56 | 1.51 | binds | 0.008 | – | binds | –
B3 | 0.73 | 1.48 | 1.64 | 1.63 | binds | 0.007 | – | – | binds
